From patent publication EP0912608B1

Target: Fibronectin from human plasma (human) (UniProt P02751)
Assay: cell-based or functional assay

UniProt P02751, sequence (P02751 other isoform, or with tags, fused parts or gaps limits assumed): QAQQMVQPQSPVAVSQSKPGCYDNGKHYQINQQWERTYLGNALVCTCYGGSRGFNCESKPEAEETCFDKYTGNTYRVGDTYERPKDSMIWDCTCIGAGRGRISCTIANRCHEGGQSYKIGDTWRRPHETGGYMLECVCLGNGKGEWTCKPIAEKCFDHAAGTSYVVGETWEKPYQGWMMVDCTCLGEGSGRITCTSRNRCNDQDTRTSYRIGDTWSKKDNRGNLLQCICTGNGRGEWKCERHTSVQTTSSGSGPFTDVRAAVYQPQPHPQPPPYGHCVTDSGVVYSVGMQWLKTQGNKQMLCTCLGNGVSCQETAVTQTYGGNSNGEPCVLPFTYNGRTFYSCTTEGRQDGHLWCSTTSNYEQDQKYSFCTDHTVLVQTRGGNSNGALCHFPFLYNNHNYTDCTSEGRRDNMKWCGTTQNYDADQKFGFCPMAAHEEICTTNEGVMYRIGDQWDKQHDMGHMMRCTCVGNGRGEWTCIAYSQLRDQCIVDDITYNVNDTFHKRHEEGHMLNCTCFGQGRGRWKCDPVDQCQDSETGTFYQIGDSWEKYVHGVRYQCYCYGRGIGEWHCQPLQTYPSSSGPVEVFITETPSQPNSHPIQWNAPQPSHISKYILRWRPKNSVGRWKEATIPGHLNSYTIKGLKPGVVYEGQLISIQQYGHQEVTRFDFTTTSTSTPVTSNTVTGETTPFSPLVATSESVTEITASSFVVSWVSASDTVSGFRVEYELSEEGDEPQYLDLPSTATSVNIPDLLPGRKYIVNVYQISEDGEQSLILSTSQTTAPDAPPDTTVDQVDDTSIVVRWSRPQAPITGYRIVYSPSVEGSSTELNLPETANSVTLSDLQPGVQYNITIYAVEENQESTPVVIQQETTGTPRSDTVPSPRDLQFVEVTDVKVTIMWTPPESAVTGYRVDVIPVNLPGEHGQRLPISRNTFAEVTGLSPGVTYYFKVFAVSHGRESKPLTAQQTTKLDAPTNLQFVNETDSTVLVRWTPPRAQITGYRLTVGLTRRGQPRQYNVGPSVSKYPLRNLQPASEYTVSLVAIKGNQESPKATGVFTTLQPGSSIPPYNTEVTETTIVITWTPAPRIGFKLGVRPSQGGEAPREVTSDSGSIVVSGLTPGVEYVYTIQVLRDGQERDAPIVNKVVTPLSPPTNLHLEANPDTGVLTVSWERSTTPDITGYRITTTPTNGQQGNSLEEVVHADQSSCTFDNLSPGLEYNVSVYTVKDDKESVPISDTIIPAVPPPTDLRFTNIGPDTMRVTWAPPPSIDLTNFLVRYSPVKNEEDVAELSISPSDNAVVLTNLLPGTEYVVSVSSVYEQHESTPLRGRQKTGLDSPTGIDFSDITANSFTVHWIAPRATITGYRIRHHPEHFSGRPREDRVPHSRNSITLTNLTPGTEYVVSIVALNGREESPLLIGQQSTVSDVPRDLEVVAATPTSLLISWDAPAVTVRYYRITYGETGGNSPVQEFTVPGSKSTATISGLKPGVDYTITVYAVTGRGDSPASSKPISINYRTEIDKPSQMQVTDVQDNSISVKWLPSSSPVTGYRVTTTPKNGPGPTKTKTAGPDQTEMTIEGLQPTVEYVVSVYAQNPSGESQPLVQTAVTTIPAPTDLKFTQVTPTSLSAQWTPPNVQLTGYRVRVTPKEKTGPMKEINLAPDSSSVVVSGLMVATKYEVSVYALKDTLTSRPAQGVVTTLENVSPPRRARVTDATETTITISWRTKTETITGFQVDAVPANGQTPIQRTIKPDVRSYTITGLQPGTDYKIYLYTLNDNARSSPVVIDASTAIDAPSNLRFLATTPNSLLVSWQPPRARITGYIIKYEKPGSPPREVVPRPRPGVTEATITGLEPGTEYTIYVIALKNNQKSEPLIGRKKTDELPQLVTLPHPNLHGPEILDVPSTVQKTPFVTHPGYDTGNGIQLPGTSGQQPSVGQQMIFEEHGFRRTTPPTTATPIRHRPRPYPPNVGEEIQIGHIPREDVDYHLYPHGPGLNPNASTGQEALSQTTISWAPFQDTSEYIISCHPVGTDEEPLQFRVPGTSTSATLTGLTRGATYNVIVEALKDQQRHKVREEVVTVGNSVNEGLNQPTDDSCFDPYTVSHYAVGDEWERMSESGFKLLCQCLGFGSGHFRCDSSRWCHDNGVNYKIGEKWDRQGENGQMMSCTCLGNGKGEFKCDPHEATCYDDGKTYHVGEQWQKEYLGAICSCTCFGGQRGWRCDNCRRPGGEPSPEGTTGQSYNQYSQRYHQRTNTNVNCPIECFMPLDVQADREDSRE

**Q.** Which inhibition of pneumococcal adherence to fibronectin does the source give for “yeast enolase (Sigma) (from UniProt P00924 2-437) (enzyme)” here?
**A.** 98%
